{"source": "patent US20160138004A1", "about": "(Hoffmann-La Roche, published 2016)", "binders": {"B1": {"name": "<IGF-1>M-11.11.17 (antibody, V domains shown)", "VH": "QVQLQQSGAELVRPGSSVKISCKASGYAFSNLWMNWVKQRPGQGLEWIGQIYPGDGDTNYYGDFKGKATLTADSSSSTAYMQLSRLTSEDSAVYFCARIGYYGMDYWGQGTSVTVSS", "VL": "DVVLTQTPLSLPVNIGDEASISCKSTKSLLSSDGLTYLDWYLQKPGQSPQVLIYLVSNRFSGVPDRFSGSGSGTDFTLKISRVEAEDLGVYYCFQSNYLPTFGAGTKLELK"}}, "key": {"[1]": {"target": "T1, Thermus thermophilus SlyD-IGF-1(74-90) fusion polypeptide", "T1 construct": "also called Thermo Thermophilus SlyD-IGF-1 fusion polypeptide; Thermus thermophilus-IGF-1 fusion polypeptide", "T1 chain": "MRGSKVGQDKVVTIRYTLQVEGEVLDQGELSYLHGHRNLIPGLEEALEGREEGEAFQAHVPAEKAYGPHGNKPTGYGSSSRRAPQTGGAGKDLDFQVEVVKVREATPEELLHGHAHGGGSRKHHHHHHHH", "experiment": "ELISA, clone culture supernatant"}, "[2]": {"target": "T1, Thermus thermophilus SlyD-IGF-1(74-90) …", "experiment": "SPR at 25 °C, mAb captured, antigen as analyte"}, "[3]": {"target": "T2, native recombinant human IGF-1 (human, UniProt P05019 49-118)", "T2 construct": "In the ELISAs it was biotinylated and held on streptavidin plates; also called native IGF-1; native human IGF-1 (Peprotech)", "experiment": "SPR at 37 °C, clone culture supernatant antibody captured"}, "[4]": {"target": "T1, Thermus thermophilus SlyD-IGF-1(74-90) …", "experiment": "SPR at 37 °C, clone culture supernatant antibody captured"}, "[5]": {"target": "T2, native recombinant human IGF-1", "experiment": "SPR kinetics at 37 °C, clone culture supernatant, IGF-1 as analyte"}}}
{"binder": "B1", "values": [{"measurement": "reactivity", "setting": "[1]", "value": 2150, "unit": "mE"}, {"measurement": "Kd", "setting": "[2]", "value": 0.01, "unit": "nM"}, {"measurement": "koff", "setting": "[2]", "value": "1e-05", "unit": "s⁻¹"}, {"measurement": "kon", "setting": "[2]", "value": 710000, "unit": "M⁻¹ s⁻¹"}, {"measurement": "koff", "setting": "[3]", "value": "1e-05", "unit": "s⁻¹"}, {"measurement": "koff", "setting": "[4]", "value": "1e-05", "unit": "s⁻¹"}, {"measurement": "Ka", "setting": "[5]", "value": "2.2e+10", "unit": "M⁻¹"}, {"measurement": "Kd", "setting": "[5]", "value": 0.046, "unit": "nM"}, {"measurement": "koff", "setting": "[5]", "value": 0.00014, "unit": "s⁻¹"}, {"measurement": "kon", "setting": "[5]", "value": "3.1e+06", "unit": "M⁻¹ s⁻¹"}]}
